Several values for one entry are separate records, joined by “and”; a condition that tells them apart may be missing. Equal entries are not always repeated. Where two headings read alike, the source gives them in different places.
Experiments:
[1] = cited from earlier work
[2] = system: patients with chronic gout; conditions: cited from earlier work
[3] = system: patients with uncontrolled gout; assay: Tender joint count (68-point) and swollen joint count (66-point), open-label study; type: in vivo, human; conditions: mITT
Experimental: Tender and Swollen Joint Counts: Tender and swollen (excludes hip) joint counts were recorded at the Week −4 or week −6 (prior to the first dose of MTX) Visit during the MTX Run-in Period for the open-label and randomized studies, respectively; prior to pegloticase infusion at the Day 1 and Weeks 14, 24 and 36 Visits, or at the Day 1 and weeks 6, 14, 20, 24, 30, 36, and 44 visits during the Pegloticase+IMM Period for the open-label and randomized studies, respectively; and at the End of Pegloticase Infusions Visit (if applicable) and the Week 52/End of Study/Early Termination Visit and the Post Treatment 3 and 6 month Follow-up visits. Tender and swollen joint counts were assessed by physical examination.

serum uric acid (sUA) = conditions: cited from earlier work
plasma urate = conditions: doses of 4 to 12 mg; within 24 to 72 hours; from 11.1±0.6 mg/dL; cited from earlier work
[4] = Day 1 vs Methotrexate Baseline, n=14
[5] = Early Termination Visit vs Methotrexate Baseline, n=3
[6] = Early Termination Visit vs Pegloticase Baseline, n=3
[7] = End of Pegloticase Infusions Visit vs Methotrexate Baseline, n=2
[8] = End of Pegloticase Infusions Visit vs Pegloticase Baseline, n=2
[9] = End of Pegloticase Infusions Visit, n=2
[10] = Week 14 vs Methotrexate Baseline, n=14
[11] = Week 14 vs Pegloticase Baseline, n=14
[12] = Week 24 vs Methotrexate Baseline, n=11
[13] = Week 24 vs Pegloticase Baseline, n=11
[14] = Week 36 vs Methotrexate Baseline, n=9
[15] = Week 36 vs Pegloticase Baseline, n=9
[16] = Week 52/ET vs Methotrexate Baseline, n=3
[17] = Week 52/ET vs Pegloticase Baseline, n=3

## CN(Cc1cnc2nc(N)nc(N)c2n1)c1ccc(C(=O)N[C@@H](CCC(=O)O)C(=O)O)cc1 [MTX, methotrexate]
[1]; RA
  Increased susceptibility to infection: < 1%
  Leukopenia: 28%
  Nausea and vomiting: 12%
[1]; renal transplant
  Increased susceptibility to infection: 20%
  Leukopenia: > 50%
  neoplasia (lymphoma): 0.5%
  neoplasia (other than lymphoma): 3%

B1: pegloticase (protein)
chain: TYKKNDEVEFVRTGYGKDMIKVLHIQRDGKYHSIKEVATTVQLTLSSKKDYLHGDNSDVIPTDTIKNTVNVLAKFKGIKSIETFAVTICEHFLSSFKHVIRAQVYVEEVPWKRFEKNGVKHVHAFIYTPTGTHFCEVEQIRNGPPVIHSGIKDLKVLKTTQSGFEGFIKDQFTTLPEVKDRCFATQVYCKWRYHQGRDVDFEATWDTVRSIVLQKFAGPYDKGEYSPSVQKTLYDIQVLTLGQVPEIEDMEISLPNIHYLNIDMSKMGLINKEEVLLPLDNPYGKITGTVKRKLSSRL
modifications: monomethoxy PEG conjugated; Krystexxa Sequence
notes: covalent conjugate of uricase produced by a genetically modified strain of Escherichia coli and monomethoxypoly (ethylene glycol)
[2]; 20/21 pegloticase-treated patients with IRs
  patients with IRs in whom loss of response (return to SUA >6 mg/dL) preceded the first IR: 95%
[2]; pegloticase 8 mg every 2 weeks (biweekly dosing)
  incidence of infusion reactions: 26%
[2]; pegloticase 8 mg every-4-week dosing regimen
  incidence of infusion-related reactions: 40%
[2]; pre-marketing controlled clinical trials
  frequency of anaphylaxis: 6.5%
[3]; Day 1, n=14
  Swollen Joint Count, Observed, Mean (SD): 5.3 (6.94)
  Swollen Joint Count, Observed, Median: 3.5
  Tender Joint Count, Observed, Mean (SD): 9.6 (11.03)
  Tender Joint Count, Observed, Median: 7.0
[3]; [4]
  Swollen Joint Count, Change from Baseline, Mean (SD): −0.7 (5.21)
  Swollen Joint Count, Change from Baseline, Median: 0.5
  Tender Joint Count, Change from Baseline, Mean (SD): −1.9 (9.75)
  Tender Joint Count, Change from Baseline, Median: 0.0
[3]; [5]
  Swollen Joint Count, Change from Baseline, Mean (SD): −1.0 (1.73)
  Swollen Joint Count, Change from Baseline, Median: 0.0
  Tender Joint Count, Change from Baseline, Mean (SD): 0.7 (5.13)
  Tender Joint Count, Change from Baseline, Median: 2.0
[3]; [6]
  Swollen Joint Count, Change from Baseline, Mean (SD): −3.3 (3.06)
  Swollen Joint Count, Change from Baseline, Median: −4.0
  Tender Joint Count, Change from Baseline, Mean (SD): −2.7 (4.16)
  Tender Joint Count, Change from Baseline, Median: −4.0
[3]; Early Termination Visit, n=3
  Swollen Joint Count, Observed, Mean (SD): 0.7 (0.58)
  Swollen Joint Count, Observed, Median: 1.0
  Tender Joint Count, Observed, Mean (SD): 7.7 (8.96)
  Tender Joint Count, Observed, Median: 3.0
[3]; [7]
  Swollen Joint Count, Change from Baseline, Mean (SD): −7.0 (4.24)
  Swollen Joint Count, Change from Baseline, Median: −7.0
  Tender Joint Count, Change from Baseline, Mean (SD): −12.0 (7.07)
  Tender Joint Count, Change from Baseline, Median: −12.0
[3]; [8]
  Swollen Joint Count, Change from Baseline, Mean (SD): −2.0 (2.83)
  Swollen Joint Count, Change from Baseline, Median: −2.0
  Tender Joint Count, Change from Baseline, Mean (SD): −3.0 (5.66)
  Tender Joint Count, Change from Baseline, Median: −3.0
[3]; [9]
  Swollen Joint Count, Observed, Mean (SD): 0.0 (0.00)
  Swollen Joint Count, Observed, Median: 0.0
  Tender Joint Count, Observed, Mean (SD): 2.0 (2.83)
  Tender Joint Count, Observed, Median: 2.0
[3]; Week 14, n=14
  Swollen Joint Count, Observed, Mean (SD): 1.7 (3.73)
  Swollen Joint Count, Observed, Median: 0.0
  Tender Joint Count, Observed, Mean (SD): 4.6 (6.16)
  Tender Joint Count, Observed, Median: 2.0
[3]; [10]
  Swollen Joint Count, Change from Baseline, Mean (SD): −4.3 (7.38)
  Swollen Joint Count, Change from Baseline, Median: −2.0
  Tender Joint Count, Change from Baseline, Mean (SD): −7.0 (14.20)
  Tender Joint Count, Change from Baseline, Median: 0.0
[3]; [11]
  Swollen Joint Count, Change from Baseline, Mean (SD): −3.6 (7.04)
  Swollen Joint Count, Change from Baseline, Median: −2.5
  Tender Joint Count, Change from Baseline, Mean (SD): −5.1 (8.12)
  Tender Joint Count, Change from Baseline, Median: −5.0
[3]; Week 24, n=11
  Swollen Joint Count, Observed, Mean (SD): 0.5 (1.21)
  Swollen Joint Count, Observed, Median: 0.0
  Tender Joint Count, Observed, Mean (SD): 2.6 (3.88)
  Tender Joint Count, Observed, Median: 0.0
[3]; [12]
  Swollen Joint Count, Change from Baseline, Mean (SD): −6.6 (9.03)
  Swollen Joint Count, Change from Baseline, Median: −3.0
  Tender Joint Count, Change from Baseline, Mean (SD): −10.2 (14.27)
  Tender Joint Count, Change from Baseline, Median: −4.0
[3]; [13]
  Swollen Joint Count, Change from Baseline, Mean (SD): −5.1 (6.66)
  Swollen Joint Count, Change from Baseline, Median: −3.0
  Tender Joint Count, Change from Baseline, Mean (SD): −6.8 (8.16)
  Tender Joint Count, Change from Baseline, Median: −4.0
[3]; Week 36, n=9
  Swollen Joint Count, Observed, Mean (SD): 0.1 (0.33)
  Swollen Joint Count, Observed, Median: 0.0
  Tender Joint Count, Observed, Mean (SD): 2.1 (4.54)
  Tender Joint Count, Observed, Median: 0.0
[3]; [14]
  Swollen Joint Count, Change from Baseline, Mean (SD): −7.8 (10.81)
  Swollen Joint Count, Change from Baseline, Median: −3.0
  Tender Joint Count, Change from Baseline, Mean (SD): −12.3 (14.56)
  Tender Joint Count, Change from Baseline, Median: −7.0
[3]; [15]
  Swollen Joint Count, Change from Baseline, Mean (SD): −6.2 (8.15)
  Swollen Joint Count, Change from Baseline, Median: −4.0
  Tender Joint Count, Change from Baseline, Mean (SD): −7.8 (8.94)
  Tender Joint Count, Change from Baseline, Median: −4.0
[3]; [16]
  Swollen Joint Count, Change from Baseline, Mean (SD): −21.0 (9.64)
  Swollen Joint Count, Change from Baseline, Median: −25.0
  Tender Joint Count, Change from Baseline, Mean (SD): −24.0 (21.38)
  Tender Joint Count, Change from Baseline, Median: −17.0
[3]; [17]
  Swollen Joint Count, Change from Baseline, Mean (SD): −13.0 (13.00)
  Swollen Joint Count, Change from Baseline, Median: −13.0
  Tender Joint Count, Change from Baseline, Mean (SD): −16.0 (17.52)
  Tender Joint Count, Change from Baseline, Median: −15.0
[3]; Week 52/ET, n=3
  Swollen Joint Count, Observed, Mean (SD): 0.0 (0.00)
  Swollen Joint Count, Observed, Median: 0.0
  Tender Joint Count, Observed, Mean (SD): 5.3 (3.21)
  Tender Joint Count, Observed, Median: 4.0
Serum uric acid (sUA); pegloticase 8 mg every 2 weeks, without MTX
  response rate (proportion of responders) during Month 6 in phase 3 studies: 43% and 43.5%
Serum uric acid (sUA); pegloticase alone
  proportion of patients maintaining therapeutic response at 6 months, previously reported: 42%
Plasma urate
  plasma urate concentration (pUAc) after dosing, mean±SD: 1.0±0.5 mg/dL
